The values below come from patent publication US20190367631A1.

For assay [1], the target named is endogenously expressed human MSR1 on PMA-treated THP-1 cells (human) (UniProt P21757). Briefly: ECL cell binding, PMA-treated THP-1 cells, 11 nM.
The target is the same in assay [2]. Briefly: confocal imaging, differentiated THP-1 cells, Alexa 488 secondary.
The target is the same in assay [3]. Briefly: cell-based or functional assay.

Sequence of endogenously expressed human MSR1 on PMA-treated THP-1 cells (human) (P21757 whole entry): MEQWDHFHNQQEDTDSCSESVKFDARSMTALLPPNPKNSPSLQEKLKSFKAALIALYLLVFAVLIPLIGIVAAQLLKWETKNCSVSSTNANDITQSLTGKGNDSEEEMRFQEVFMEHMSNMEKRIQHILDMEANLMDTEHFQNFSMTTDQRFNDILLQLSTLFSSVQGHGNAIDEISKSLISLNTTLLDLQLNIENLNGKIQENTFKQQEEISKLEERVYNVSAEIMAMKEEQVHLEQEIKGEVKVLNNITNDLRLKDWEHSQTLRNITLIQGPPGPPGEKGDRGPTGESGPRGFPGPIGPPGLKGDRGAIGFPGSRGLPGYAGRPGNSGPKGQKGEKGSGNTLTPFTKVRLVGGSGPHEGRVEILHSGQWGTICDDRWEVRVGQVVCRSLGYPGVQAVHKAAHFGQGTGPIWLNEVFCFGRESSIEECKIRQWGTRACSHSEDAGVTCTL

B1: H1H27734P-N297Q (antibody, human IgG1, V domains shown)
VH: EVQLVESRGGLVQPGGSLRLSCAASGFTFSSYAMSWVRQAPGKGLEWVSAISGSGGSTFYADSVKGRFTISRDNSKNTVYLQMNSLRAEDTAVYYCAKALVLRFLEWLGDYWGQGTLVTVSS
VL: DIQMTQSPSTLSASVGDRVTITCRASQSISSWLAWFQQKPGKAPKLLIYKASSLESGVPSRFSGSGSGTEFTLTISSLQPDDFATYYCQQYKSYWTFGQGTKVEIKR
On to B1, for which, in assay [1], the ratio of binding signal (RLU) to isotype control is 21 fold. In assay [2], the Total Binding at 4° C. (RFU) stood at 483000 RFU and the Total Binding at 37° C. (RFU) was 1.15e+06 RFU. The same molecule returned a Total Internalized RFU in assay [3] of 737000 RFU.

B2: H1H21234N-N297Q (antibody, human IgG1, V domains shown)
VH: QVQLQESGPGLVKPSETLSLTCTVTGGSISRNYWSWIRQPPGKGLEWIGYIYYSGSIDYNPSLKSRVTISVDTSKNQFSLKLSSMTAADTAVYYCARDRWNWKYGMDVWGQGTTVIVSS
VL: EIVLTQSPGTLSLSPGERATLSCRASQTVRNNYLAWYHQKPGQAPRLLIYGASSRATGIPDRFSGSGSGTDFTLTISRLEPEDFTVYYCHQYGNSPWTFGQGTKMEIKR
For B2, in assay [1], the ratio of binding signal (RLU) to isotype control stood at 25 fold. In assay [2], the Total Binding at 4° C. (RFU) turned out to be 1.95e+06 RFU and the Total Binding at 37° C. (RFU) was determined as 5.45e+06 RFU. In assay [3], this molecule had a % Internalization of 13.3% and a Total Internalized RFU of 723000 RFU.

B3: H2aM25695N (antibody, mouse IgG2a, V domains shown)
VH: QVQLQESGPGLVKPSETLSLTCTVTGGSISRNYWSWIRQPPGKGLEWIGYIYYSGSINYNPSLKSRVTISVDMSKNQFSLKLNSVTAADTAVYYCARDRWNWKYGMDVWGQGTTVIVSS
VL: EIVLTQSPGTLSLSPGERATLSCRASQTVRNSYLAWYHQKPGQAPRLLIYGASSRATGIPDRFSGSGSGTDFTLTISRLEPEDFAVYYCQQYGSSYWTFGQGTKMEIKR
For B3, in assay [1], the ratio of binding signal (RLU) to isotype control worked out at 8 fold.

B4: H1H21234N (antibody, human IgG1, V domains shown)
VH: QVQLQESGPGLVKPSETLSLTCTVTGGSISRNYWSWIRQPPGKGLEWIGYIYYSGSIDYNPSLKSRVTISVDTSKNQFSLKLSSMTAADTAVYYCARDRWNWKYGMDVWGQGTTVIVSS
VL: EIVLTQSPGTLSLSPGERATLSCRASQTVRNNYLAWYHQKPGQAPRLLIYGASSRATGIPDRFSGSGSGTDFTLTISRLEPEDFTVYYCHQYGNSPWTFGQGTKMEIKR
Regarding B4, the ratio of binding signal (RLU) to isotype control in assay [1] amounted to 18 fold.

B5: H1H27739P-N297Q (antibody, human IgG1, V domains shown)
VH: EVQLVESGGGLVQPGGSLRLSCTASGFTFSSYAMSWVRQAPGKGLEWVSAISGTGSSTYFTDSVKGRFAISRDNSKNTLYLQMNSLRAEDTAVYYCAKDGEWLSTVTLFDYWGQGTLVTVSS
VL: EIVMTQSPATLSVSPGERATLSCRASQSVSSNLAWYQQKPGQAPRLLIYGASTRATGIPARFSGSGSGTDFTLTISSLQSEDFALYYCQQYFIWPPHPTFGPGTKVDIKR
B5: the ratio of binding signal (RLU) to isotype control in assay [1] came out at 9 fold. Moreover, in assay [2], the Total Binding at 4° C. (RFU) turned out to be 3.7e+06 RFU and the Total Binding at 37° C. (RFU) worked out at 5.61e+06 RFU. Also, in assay [3], the % Internalization is 71.6% and the Total Internalized RFU came out at 4.02e+06 RFU.

B6: H1H21227N-N297Q (antibody, human IgG1, V domains shown)
VH: QVQLVQSGAEVKKPGASVKVSCKVSGYTLTELSIHWVRQVPGKGLEWMGGFDPEEGETIFAQEFRDRVTLTEDTSPDTAYMELSSLKSEDAAVYYCTTPRYCNNGICYDYWGQGTLVTVSS
VL: DIQMTQSPSSLSASVGDRVTITCRASQSISNYLNWYQQKPGKAPKLLIYTASSLQSGVPSRFSGSGSGTDFTLTISSLQTEDFATYYCQQSYSNFPITFGQGTRLEIKR
Regarding B6, the ratio of binding signal (RLU) to isotype control in assay [1] was 5 fold. In assay [2], this molecule showed a Total Binding at 4° C. (RFU) of 1.8e+06 RFU and a Total Binding at 37° C. (RFU) of 4.11e+06 RFU. In assay [3], this molecule registered a % Internalization of 78.5% and a Total Internalized RFU of 3.23e+06 RFU.

B7: H1H21227N (antibody, human IgG1, V domains shown)
VH: QVQLVQSGAEVKKPGASVKVSCKVSGYTLTELSIHWVRQVPGKGLEWMGGFDPEEGETIFAQEFRDRVTLTEDTSPDTAYMELSSLKSEDAAVYYCTTPRYCNNGICYDYWGQGTLVTVSS
VL: DIQMTQSPSSLSASVGDRVTITCRASQSISNYLNWYQQKPGKAPKLLIYTASSLQSGVPSRFSGSGSGTDFTLTISSLQTEDFATYYCQQSYSNFPITFGQGTRLEIKR
With B7, in assay [1], the ratio of binding signal (RLU) to isotype control is 7 fold.

B8: H1H21231N (antibody, human IgG1, V domains shown)
VH: EVQLVESGGGLVQPGGSLRLSCAASGFTFSDHYMDWVRQAPGKGLEWVGRTRNKANSHTTEYTASVTGRFTISRDDSRNSLYLQMNSLKTEDTAVYYCVRAGIIGTLFDYWGQGTLVTVSS
VL: DIQMTQFPSSLSASVGDRVTITCRASQSISSFLNWFQQKPGKAPKFLIYAASSLQSGVPSRFSGSGSGTDFTLTISSLQPEDFATYYCQQSYSSPPITFGQGTRLEIKR
Take B8: the ratio of binding signal (RLU) to isotype control in assay [1] came out at 42 fold.

B9: H2aM25690N (antibody, mouse IgG2a, V domains shown)
VH: EVQLLESGGGLVQPGGSLRLSCAASGFTFSNYAMTWVRQAPGTGLEWVSAISGRGSNTYYTDSVKGRFTISRDNSKNMLYLQMNSLRAEDTASYYCAKDRFTTVGNWFDPWGQGTLVTVSS
VL: DIQMTQSPSSLSASVGDRVTITCRASQSISSYLNWYQQKPGKAPKLLIYAASSLQNGVPSRFSGSGSGTDFTLTISSLQPEDFATYYCQQSYSSLPITFGQGTRLDIKR
In the case of B9, the ratio of binding signal (RLU) to isotype control in assay [1] came to 25 fold.

B10: H2aM25700N (antibody, mouse IgG2a, V domains shown)
VH: QVQLVQSGSEVKKPGASVKVSCKVSGYTLTELSIHWVRQAPGKGLEWMGGFDPEDGETIYAQKFRGRVTMTEDISPDTAYMELSSLRSEDTAVYYCATPRYCNNGICYDYWGQGTLVTVSS
VL: DIQMTQSPSSLSASIGDRVTITCRASQSISSYLNWYQQKPGKAPMLLIYAASSLQSGVPSRFSGSGSGTDFTLTISSLQTEDFATYYCQQSYSTPPITFGQGTRLEIKR
For the molecule B10, the ratio of binding signal (RLU) to isotype control in assay [1] turned out to be 3 fold.

B11: H1H21231N-N297Q (antibody, human IgG1, V domains shown)
VH: EVQLVESGGGLVQPGGSLRLSCAASGFTFSDHYMDWVRQAPGKGLEWVGRTRNKANSHTTEYTASVTGRFTISRDDSRNSLYLQMNSLKTEDTAVYYCVRAGIIGTLFDYWGQGTLVTVSS
VL: DIQMTQFPSSLSASVGDRVTITCRASQSISSFLNWFQQKPGKAPKFLIYAASSLQSGVPSRFSGSGSGTDFTLTISSLQPEDFATYYCQQSYSSPPITFGQGTRLEIKR
Turning to B11, in assay [1], the ratio of binding signal (RLU) to isotype control was determined as 45 fold.

B12: H1H21227N-N297D (antibody, human IgG1, V domains shown)
VH: QVQLVQSGAEVKKPGASVKVSCKVSGYTLTELSIHWVRQVPGKGLEWMGGFDPEEGETIFAQEFRDRVTLTEDTSPDTAYMELSSLKSEDAAVYYCTTPRYCNNGICYDYWGQGTLVTVSS
VL: DIQMTQSPSSLSASVGDRVTITCRASQSISNYLNWYQQKPGKAPKLLIYTASSLQSGVPSRFSGSGSGTDFTLTISSLQTEDFATYYCQQSYSNFPITFGQGTRLEIKR
As for B12, the ratio of binding signal (RLU) to isotype control in assay [1] was determined as 6 fold.

B13: H1H27729P-N297Q (antibody, human IgG1, V domains shown)
VH: QVQLVESGGGLVKPGGSLRLSCAASGFIFSDYYMSWIRQAPGKGLEWVSYISSSGTTIYGDSVKGRFTMSRDNAKNSLYLQMNSLRAEDTAVYYCARNYALFDYWGQGTLVTVSS
VL: DIQMTQSPSSLSASVGDRVTITCQASQDISKYLNWYQQKPGKAPKLLIYYTSNLETGVPSRFSGSGSGTDFTFTISSLQPEDIATYYCHQSDYLPFTFGPGTKVDIKR
Consider B13, for which the ratio of binding signal (RLU) to isotype control in assay [1] is 8 fold. Further, in assay [2], the Total Binding at 4° C. (RFU) turned out to be 1.93e+06 RFU and the Total Binding at 37° C. (RFU) stood at 6.61e+06 RFU. Further, in assay [3], the % Internalization was determined as 57% and the Total Internalized RFU is 3.76e+06 RFU.

B14: H2aM21229N (antibody, mouse IgG2a, V domains shown)
VH: EVQLVESGGGLVKPGGSLRLSCAASGFTFSRYSMNWVRQAPGKGLEWVSSISSSSSYIYYGDTVKGRFTISRDNAKKSLYLQMNSLRAEDTAVYYCVRDRGQLVLYFDYWGQGTLVTVSS
VL: DIQMTQSPASLSTSIRDRVTITCRASLSISSFLNWFQQRPGKAPKLLIYVASNLQSGVPSRFSDSGSGTDFTLTISSLQPEDFATYYCQQNYSTPPITFGQGTRLEIK
As to B14, the ratio of binding signal (RLU) to isotype control in assay [1] was 56 fold.

B15: H1H27747P-N297Q (antibody, human IgG1, V domains shown)
VH: QVQLVESGGAVVQPGRSLRLSCAASGFTFSYYGMHWVRQAPGKGLEWVAVISYDGSKKYYADSVKGRFTISRDNSKNTLYLQMNSLRAEDTAVYYCAKDLTVDFYYGMDVWGQGTTVTVSS
VL: DIQMTQSPSSVSASVGDRVTITCRASQGISSWLAWYQQKPGKAPKLLIYATSSLQSGAPSRFSGSGSGTDFTLTISSLQPEDFATYFCQQANSFPYTFGQGTKLEIKR
As to B15, in assay [1], the ratio of binding signal (RLU) to isotype control is 13 fold. In assay [2], the Total Binding at 4° C. (RFU) amounted to 2.52e+06 RFU and the Total Binding at 37° C. (RFU) came out at 5.92e+06 RFU. In assay [3], the % Internalization was 58.2% and the Total Internalized RFU is 3.44e+06 RFU.

B16: H1H27754P-N297Q (antibody, human IgG1, V domains shown)
VH: EVQLVESGGGLVQPGGSLRLSCAASGFTFRTYAMTWVRQAPGKGLDWVSAITGDGGNTYYADSVKGRFTISRDNSKNTLYLQMNSLRAEDTAIYYCAKDQRFSFALYYFDYWGQGTLVTVSS
VL: DIQMTQSPSSVSASVGDRVTITCRASQGISSWLAWYQQKPGNAPKLLIYAAFSLQSGVPSRFSGSGSGTDFTLTISSLQPEDFATYYCQQANNFPWTFGQGTKVEIKR
With B16, the ratio of binding signal (RLU) to isotype control in assay [1] is 66 fold. In assay [2], this molecule yielded a Total Binding at 4° C. (RFU) of 3.08e+06 RFU and a Total Binding at 37° C. (RFU) of 7.16e+06 RFU. In assay [3], this molecule registered a % Internalization of 90% and a Total Internalized RFU of 6.45e+06 RFU.
